The values below come from article PMC9871250, “Identification of an indole biodegradation gene cluster from Providencia rettgeri and its contribution in selectively biosynthesizing Tyrian purple” (Frontiers in Bioengineering and Biotechnology, 2023).

Substrate in series [1]: Brc1ccc2cc[nH]c2c1
As to the kind of experiment: Tyrian purple formation by LC-MS. Conditions: pH 7.5, 30 °C, 250 μM NADH, 0.6% glucose with GDH recycling, unit μm [sic], meant μM, table title says NADH oxidation, methods say indigo/Tyrian purple formation. The series is classed as biochemical, Methylophaga thalassica. The source says: Tyrian purple formation by LC-MS on MaFMO

Substrate in series [2]: c1ccc2[nH]ccc2c1
As to the kind of experiment: indigo formation by LC-MS. It counts as biochemical, Methylophaga thalassica. Particulars: pH 7.5, 30 °C, 250 μM NADH, 0.6% glucose with GDH recycling, unit μm [sic], meant μM, table title says NADH oxidation, methods say indigo/Tyrian purple formation. The source says: indigo formation by LC-MS on MaFMO

B1: MaFMO (Methylophaga thalassica) (protein)
chain: MATRIAILGAGPSGMAQLRAFQSAQEKGAEIPELVCFEKQADWGGQWNYTWRTGLDENGEPVHSSMYRYLWSNGPKECLEFADYTFDEHFGKPIASYPPREVLWDYIKGRVEKAGVRKYIRFNTAVRHVEFNEDSQTFTVTVQDHTTDTIYSEEFDYVVCCTGHFSTPYVPEFEGFEKFGGRILHAHDFRDALEFKDKTVLLVGSSYSAEDIGSQCYKYGAKKLISCYRTAPMGYKWPENWDERPNLVRVDTENAYFADGSSEKVDAIILCTGYIHHFPFLNDDLRLVTNNRLWPLNLYKGVVWEDNPKFFYIGMQDQWYSFNMFDAQAWYARDVIMGRLPLPSKEEMKADSMAWREKELTLVTAEEMYTYQGDYIQNLIDMTDYPSFDIPATNKTFLEWKHHKKENIMTFRDHSYRSLMTGTMAPKHHTPWIDALDDSLEAYLSDKSEIPVAKEA
notes: synthesized gene, His-tag, E. coli BL21(DE3), Ni-NTA; primers give start MATRIAI, end VAKEA
On to B1, for which, in series [1], the Km came to 303.65 µM, the kcat came out at 0.000521 s⁻¹ and the kcat/Km was determined as 1.67 M⁻¹ s⁻¹. Further, in series [2], the Michaelis constant (Km) was 242.2 µM, the turnover number (kcat) stood at 0.000246 s⁻¹ and the kcat/Km amounted to 1 M⁻¹ s⁻¹.
